# Assay results from patent US20230414778A1, “COMBINATION OF ANTIBODY-DRUG CONJUGATE WITH ANTI-SIRPalpha ANTIBODY” (DAIICHI SANKYO COMPANY, LIMITED, priority 2020, published 2023).
# T1: mouse SIRPα antigen (Mus musculus, UniProt P97797)
# T1 sequence (P97797 32-513): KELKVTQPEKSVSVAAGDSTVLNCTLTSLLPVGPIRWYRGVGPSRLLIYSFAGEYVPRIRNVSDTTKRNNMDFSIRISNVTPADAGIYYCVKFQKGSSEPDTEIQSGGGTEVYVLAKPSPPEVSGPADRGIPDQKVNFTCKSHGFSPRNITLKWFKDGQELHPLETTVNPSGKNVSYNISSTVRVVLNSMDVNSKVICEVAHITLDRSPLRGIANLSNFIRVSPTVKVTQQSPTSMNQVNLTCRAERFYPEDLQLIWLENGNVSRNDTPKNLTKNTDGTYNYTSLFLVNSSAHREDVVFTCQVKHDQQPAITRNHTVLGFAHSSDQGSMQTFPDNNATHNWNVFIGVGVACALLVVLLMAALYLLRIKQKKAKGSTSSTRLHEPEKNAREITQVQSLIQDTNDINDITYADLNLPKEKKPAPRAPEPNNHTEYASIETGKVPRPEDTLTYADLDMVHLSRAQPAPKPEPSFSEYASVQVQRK
# B1: 5C12: rat-derived anti-mouse SIRPα surrogate antibody, heavy and light chain SEQ ID NOs: 30 and 31 (antibody, listed as Mus musculus)
# heavy: MKHLWFFLLLVAAPRWVLSEVQLVESGGGLVQPGGSLKLSCAASGFTFSNYDMAWVRQAPTKGLEWVASISTRGGSSYYRDSVKGRFTVSRDNAKSTLYLQMDSLRSEDTATYYCARHPGDYFDYWGQGVMVTVSSAKTTPPSVYPLAPGSAAQTNSMVTLGCLVKGYFPEPVTVTWNSGSLSSGVHTFPAVLQSDLYTLSSSVTVPSSTWPSETVTCNVAHPASSTKVDKKIVPRDCGCKPCICTVPEVSSVFIFPPKPKDVLTITLTPKVTCVVVAISKDDPEVQFSWFVDDVEVHTAQTQPREEQFNSTFRSVSELPIMHQDWLNGKEFKCRVNSAAFPAPIEKTISKTKGRPKAPQVYTIPPPKEQMAKDKVSLTCMITDFFPEDITVEWQWNGQPAENYKNTQPIMDTDGSYFVYSKLNVQKSNWEAGNTFTCSVLHEGLHNHHTEKSLSHSPGK
# light: MVLQTQVFISLLLWISGAYGDTVLTQSPALAVSPGERVTISCRASESVSTLIHWYQQKPGQQPKLLIYLTSHLESGVPARFSGSGSGTDFTLTIDPVEADDTATYYCQQSWTHPWTFGGGTKLELKRADAAPTVSIFPPSSEQLTSGGASVVCFLNNFYPKDINVKWKIDGSERQNGVLNSWTDQDSKDSTYSMSSTLTLTKDEYERHNSYTCEATHKTSTSPIVKSFNRNEC
# Tests used:
# SIRPβ1 = SIRPβ1 (Homo sapiens, UniProt O00241); settings: Patent References 1 to 3; cited from earlier work
# SIRPβ1, sequence (O00241 30-398): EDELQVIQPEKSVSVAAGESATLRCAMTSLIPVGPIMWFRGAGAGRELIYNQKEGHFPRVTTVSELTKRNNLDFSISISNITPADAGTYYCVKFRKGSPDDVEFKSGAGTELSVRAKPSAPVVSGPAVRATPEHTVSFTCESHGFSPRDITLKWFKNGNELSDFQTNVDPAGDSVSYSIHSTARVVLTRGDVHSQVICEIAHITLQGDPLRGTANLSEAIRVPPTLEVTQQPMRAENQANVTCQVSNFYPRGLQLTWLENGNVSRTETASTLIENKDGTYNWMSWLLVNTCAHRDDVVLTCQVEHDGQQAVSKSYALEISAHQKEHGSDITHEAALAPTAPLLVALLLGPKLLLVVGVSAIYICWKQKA
# SIRPα V1 = SIRPα V1 (Homo sapiens, UniProt P78324); settings: Patent References 1 to 3; cited from earlier work
# cancer cells = settings: known from literature; cited from earlier work
# SIRPγ = SIRPγ (Homo sapiens, UniProt Q9P1W8); settings: Patent References 1 to 3; cited from earlier work
# SIRPγ, sequence (Q9P1W8 29-387): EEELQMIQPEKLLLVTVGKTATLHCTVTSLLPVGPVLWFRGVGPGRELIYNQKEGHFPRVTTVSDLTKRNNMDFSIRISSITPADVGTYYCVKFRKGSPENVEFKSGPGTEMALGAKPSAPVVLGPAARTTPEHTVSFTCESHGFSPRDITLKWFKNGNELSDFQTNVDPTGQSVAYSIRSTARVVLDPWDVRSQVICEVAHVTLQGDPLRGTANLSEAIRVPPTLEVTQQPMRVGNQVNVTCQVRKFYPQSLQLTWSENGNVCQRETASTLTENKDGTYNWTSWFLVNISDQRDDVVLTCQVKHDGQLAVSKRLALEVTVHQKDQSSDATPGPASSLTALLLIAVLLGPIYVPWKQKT
# [1] = system: all 10 types of SIRPα variant; settings: Patent References 1 to 3; cited from earlier work
# CT26.WT-hTROP2 cells = assay: Antitumor study (2); type: in vivo, BALB/c mice; settings: single administration, 10 mg/kg, Day 18
# Procedure: Mouse: Female 6-week-old BALB/c mice (BALB/c AnNCrlCrlj) (bred by CHARLES RIVER LABORATORIES JAPAN, INC.) were subjected to experiments. Measurement and calculation formula: the long diameter and short diameter of tumors were measured twice a week with an electronic digital caliper (CD15-CX, manufactured by Mitutoyo Corporation), and the tumor volumes (mm^3) were calculated. The calculation formula is shown below: […] Individuals having a tumor volume of beyond 3000 mm^3 were humanely killed from an ethical point of view for animal experiments. […] An anti-SIRPα antibody (clone: 5C12) was diluted with PBS, and a dose of 10 mL/kg was intraperitoneally administered. […] The cells express a human TROP2 protein on the cell membrane. CT26.WT-hTROP2 cells were suspended in saline, and 2.0×10^6 cells were subcutaneously inoculated into the right axilla of each of the BALB/c mice (Day 0). Seven days later, the mice were randomly grouped (Day 7). […] The anti-SIRPα antibody (clone: 5C12) was intraperitoneally administered at a dose of 10 mg/kg on Day 8, 11 and 13 (three times in total). […] Measurement of the tumor volume was continued until Day 18. […] P value was expressed to four decimal places and the results satisfying P<0.05 (two-sided test) were determined as being significant.
# CT26.WT-HER3 cells = assay: Antitumor study (3); type: in vivo, BALB/c mice; settings: single administration, 10 mg/kg, Day 18
# Procedure: Mouse: Female 6-week-old BALB/c mice (BALB/c AnNCrlCrlj) (bred by CHARLES RIVER LABORATORIES JAPAN, INC.) were subjected to experiments.
# Measurement and calculation formula: the long diameter and short diameter of tumors were measured twice a week with an electronic digital caliper (CD15-CX, manufactured by Mitutoyo Corporation), and the tumor volumes (mm^3) were calculated. The calculation formula is shown below:
# Tumor volume (mm^3)=0.5×Long diameter (mm)×[Short diameter (mm)]^2
# Individuals having a tumor volume of beyond 3000 mm^3 were humanely killed from an ethical point of view for animal experiments.
# The antibody-drug conjugate (3) (Drug-to-Antibody Ratio: 8) and an anti-SIRPα antibody (clone: 5C12) were diluted with PBS, and used for administration.
# To mouse colorectal cancer cell line CT26.WT (CRL2638) purchased from the American Type Culture Collection, a human HER3 gene was transfected by use of a lentivirus vector to prepare CT26.WT-HER3 cells, which were put in use. The cells express a human HER3 protein on the cell membrane. CT26.WT-HER3 cells were suspended in saline, and 2.0×10^6 cells were subcutaneously inoculated into the right axilla of each of the BALB/c mice (Day 0). Seven days later, the mice were randomly grouped (Day 7). […] P value was expressed to four decimal places and the results satisfying P<0.05 (two-sided test) were determined as being significant.
# mouse SIRPα antigen = molecular target: T1, mouse SIRPα antigen; assay: Binding affinity to mouse SIRPα antigen
# Procedure: The lymph node cells and mouse myeloma SP2/0-ag14 cells (ATCC: CRL-1581) were fused in accordance with a polyethylene glycol method. The fused cells were suspended in HAT selective medium and cultured in accordance with the limiting dilution method. The hybridoma colonies that emerged were collected. In this manner, monoclonal hybridomas were prepared. The collected hybridoma colonies were cultured. Using the resultant hybridoma culture supernatant, an antibody-producing hybridoma was screened based on binding activity to a mouse SIRPα protein as an index. In this manner, clone: 5C12 was screened.
# 4T1-hmHER2 cells = assay: Antitumor study (1); type: in vivo, BALB/c mice; settings: single administration, 10 mg/kg, Day 21
# Procedure: Individuals having a tumor volume of beyond 3000 mm^3 were humanly killed from an ethical point of view for animal experiments.
# The antibody-drug conjugate (1) (Drug-to-Antibody Ratio: 7.6) was diluted with PBS, and a dose of 10 mL/kg was intravenously administered to the tail vein.
# To mouse breast cancer cell line 4T1 (CRL-2539) purchased from the American Type Culture Collection, a human/mouse chimera HER2 gene was transfected by use of a lentivirus vector to prepare 4T1-hmHER2 cells, which were put in use. The cells express a human/mouse chimera HER2 protein on the cell membrane. Then, 4T1-hmHER2 cells were suspended in PBS and 1.0×10^6 cells were subcutaneously inoculated into the right axilla of each of the BALB/c mice (Day 0). Four days later, the mice were randomly grouped (Day 4). The antibody-drug conjugate (1) was intravenously administered at a dose of 10 mg/kg on Day 4 and 11 (two times in total) to the tail vein. […] P value was expressed to four decimal places and the results satisfying P<0.05 (two-sided test) were determined as being significant.
molecule,measurement,setting,value
"OSE-172: anti-SIRPα IgG4Pro antibody of WO 2017/178653, SEQ ID NO: 24 and 25",binding to SIRPβ1,SIRPβ1,binds
same,binding to SIRPα V1,SIRPα V1,binds
O=C1[O][Pt]2([NH][C@@H]3CCCC[C@H]3[NH]2)[O]C1=O [Oxaliplatin],ICD induction,cancer cells,inducing ICD
CO[C@@]12[C@H](COC(N)=O)C3=C(C(=O)C(C)=C(N)C3=O)N1C[C@@H]1N[C@@H]12 [Mitomycin C],ICD induction,cancer cells,not confirmed to induce ICD
O=P1(N(CCCl)CCCl)NCCCO1 (stereo not shown) [Cyclophosphamide],ICD induction,cancer cells,inducing ICD
"KWAR23: anti-SIRPα antibody of WO 2018/026600, SEQ ID NO: 26 and 27",binding to SIRPβ1,SIRPβ1,binds
same,binding to SIRPγ,SIRPγ,binds
same,binding to all 10 types of SIRPα variant,[1],binds
CC(=O)O[C@@]12CO[C@@H]1C[C@H](O)[C@@]1(C)C(=O)[C@H](O)C3=C(C)[C@@H](OC(=O)[C@H](O)[C@@H](NC(=O)OC(C)(C)C)c4ccccc4)C[C@@](O)([C@@H](OC(=O)c4ccccc4)[C@H]21)C3(C)C [Docetaxel],ICD induction,cancer cells,not confirmed to induce ICD
"ADU-1805: anti-SIRPα IgG2 antibody of WO 2018/190719, SEQ ID NO: 28 and 29",binding to SIRPγ,SIRPγ,binds
same,binding to all 10 types of SIRPα variant,[1],binds
B1,antitumor effect (tumor volume) compared to the control group,CT26.WT-hTROP2 cells,partial antitumor effect
same,antitumor effect (tumor volume) compared to the control group,CT26.WT-HER3 cells,no therapeutic effect
same,binding affinity to mouse SIRPα antigen compared with that of hD13_H1L3 to a human SIRPα antigen,mouse SIRPα antigen,at the same level
same,binding affinity to the mouse SIRPα antigen,mouse SIRPα antigen,high binding affinity
same,antitumor effect (tumor volume) compared to the control group,4T1-hmHER2 cells,significantly stronger antitumor effect
